22 molecules from US20150361176A1 (GlaxoSmithKline, published 2015) can be followed below.

In general, Kd refers to the free concentration of one partner at which half of the binding sites on the other are occupied at equilibrium, for simple one-to-one binding. For orientation: koff means the rate constant with which the complex falls apart. For orientation: kon means a measure of how fast the partners come together.

Sequences and labels used below:
B1: DOM23h-271-130 (DOM23h-271-123 + C-terminal Alanine) (VHH)
VHH: EVQLLESGGGLVQPGGSLRLSCAASGSTFTEYRMWWVRQAPGKGLEWVSAIEPIGHRTYYADSVKGRFTISRDNSKNTLYLQMNSLRAEDTAVYYCAKQAPGEKWARRWDLDYWGQGTLVTVSS
notes: human VH dAb
B2: DOM23h-271-131 (DOM23h-271-123 + C-terminal Alanine + 61N) (VHH)
VHH: B1 VHH with D62N
notes: human VH dAb
B3: DOM23h-271-133 (DOM23h-271-123 + C-terminal Alanine + 61N64R) (VHH)
VHH: B1 VHH with D62N, K65R
notes: human VH dAb
B4: DOM23h-271-132 (DOM23h-271-123 + C-terminal Alanine + 64R) (VHH)
VHH: B1 VHH with K65R
notes: human VH dAb
B5: DOM23h-271-123 (VHH)
VHH: B1 VHH
notes: expressed from pC10
B6: DOM23h-271-129 (VHH)
VHH: B1 VHH with G102N, E103Q, K104R, W105Y, A106V, R107A, W109G, D110R
notes: expressed from pC10
B7: DOM23h-439-35 (VHH)
VHH: EVQLLESGGGLVQPGGSLRLSCAASGFTFGTDQMWWVRQAPGKGLEFVSRIDSPGGRTYYANSVKGRFTISRDNSKNTLYLQMNSLRAEDTAVYYCAKRQPAGVSGKYVDYWGQGTLVTVSS
notes: expressed from pC10
B8: DOM23h-439-40 (DOM23h-439-25 + C-terminal Alanine) (VHH)
VHH: B7 VHH with D32E, N62D, Q100R, A102T, K107T, Y108F, V109Y
notes: human VH dAb
B9: DOM23h-439-43 (DOM23h-439-25 + C-terminal Alanine + 64R) (VHH)
VHH: B7 VHH with D32E, N62D, K65R, Q100R, A102T, K107T, Y108F, V109Y
notes: human VH dAb
B10: DOM23h-439-44 (DOM23h-439-25 + C-terminal Alanine + 61N64R) (VHH)
VHH: B7 VHH with D32E, K65R, Q100R, A102T, K107T, Y108F, V109Y
notes: human VH dAb
B11: DOM23h-439-42 (DOM23h-439-25 + C-terminal Alanine + 61N) (VHH)
VHH: B7 VHH with D32E, Q100R, A102T, K107T, Y108F, V109Y
notes: human VH dAb
B12: DOM23h-439-41 (DOM23h-439-25 + C-terminal Alanine + 48I) (VHH)
VHH: B7 VHH with D32E, V48I, N62D, Q100R, A102T, K107T, Y108F, V109Y
notes: human VH dAb
B13: DOM23h-271 mutant 1A2 (R at 61, A at 64) (VHH, name in Kabat numbering)
VHH: EVQLLESGGGLVQPGGSLRLSCAASGFTFTEYRMWWVRQAPGKGLEWVSAIEPIGNRTYYARSVAGRFTISRDNSKNTLYLQMNSLRAEDTAVYYCAKQIPGRKWTANSRFDYWGQGTLVTVSS
notes: human VH dAb; expressed from pDOM13
B14: DOM23h-271 mutant 1E6 (R at 61, Y at 64) (VHH, name in Kabat numbering)
VHH: B13 VHH with A65Y
notes: human VH dAb; expressed from pDOM13; also called RY
B15: DOM23h-271 mutant 1D9 (R at 61, D at 64) (VHH, name in Kabat numbering)
VHH: B13 VHH with A65D
notes: human VH dAb; expressed from pDOM13; also called RD
B16: DOM23h-271 mutant 1B11 (R at 61, V at 64) (VHH, name in Kabat numbering)
VHH: B13 VHH with A65V
notes: human VH dAb; expressed from pDOM13; also called RV
B17: DOM23h-271 mutant 1G11 (R at 61, M at 64) (VHH, name in Kabat numbering)
VHH: B13 VHH with A65M
notes: human VH dAb; expressed from pDOM13; also called RM
B18: DOM23h-271 mutant 1D5 (K at 61, F at 64) (VHH, name in Kabat numbering)
VHH: B13 VHH with R62K, A65F
notes: human VH dAb; expressed from pDOM13; also called KF
B19: DOM23h-271 mutant 1B2 (V at 61, W at 64) (VHH, name in Kabat numbering)
VHH: B13 VHH with R62V, A65W
notes: human VH dAb; expressed from pDOM13; also called VW
B20: DOM23h-271 mutant 2C12 (D61N, K64R) (VHH, name in Kabat numbering)
VHH: B13 VHH with R62N, A65R
notes: human VH dAb; expressed from pDOM13; also called NR
B21: DOM23h-271 mutant 3D4 (K at 61, T at 64) (VHH, name in Kabat numbering)
VHH: B13 VHH with R62K, A65T
notes: human VH dAb; expressed from pDOM13; also called KT
B22: DOM23h-271 mutant 1H11 (L at 61, W at 64) (VHH, name in Kabat numbering)
VHH: B13 VHH with R62L, A65W
notes: human VH dAb; expressed from pDOM13; also called LW

Changes are numbered by the printed parent chain. Names and notes keep the numbering of the source.

T2 sequence (P37173 24-159 limits assumed, change not shown): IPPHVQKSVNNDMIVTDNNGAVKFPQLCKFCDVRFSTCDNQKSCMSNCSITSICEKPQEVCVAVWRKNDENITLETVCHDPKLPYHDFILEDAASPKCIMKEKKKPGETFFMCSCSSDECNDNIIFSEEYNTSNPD

One assay deals with T1, cynomolgus TGF-β RII/Fc (cynomolgus).
T1 construct: extracellular domain; also called Cyno TGFBRII; Cyno TGFbRII
In words: SPR Biacore T200, receptor-Fc captured by anti-human IgG, dAb as analyte, 1:1 model. How it is done:
(§1) Anti-human IgG was immobilised on a Biacore CM4 chip by primary amine coupling according to the manufacturer's instructions. Human TGF-β RII/Fc, cynomolgus TGF-β RII/Fc or human Fc fragment were captured on this surface. Domain antibodies were passed over the two captured receptors at 3 concentrations of 100, 10 and 1 nM (DOM23h-439 dAbs) or 100, 25 and 6.25 nM (DOM23h-271 dAbs). Only the 100 nM concentration of each dab was passed over human Fc fragment to confirm specificity of binding to the extracellular TGF-β RII domain. An injection of buffer over the captured antigen surface was used for double referencing. […] All runs were carried out at 25° C. using HBS-EP buffer as running buffer. Data were generated using the BIACORE™ T200 and fitted to the 1:1 binding model inherent to the software. […] The DOM23h-271 dAbs and the DOM23h-439 lineages were run in separate experiments.
B1 gave a Kd of 0.124 nM, a koff of 0.000324 s⁻¹ and a kon of 2.61e+06 M⁻¹ s⁻¹.
On the same counts, the results for B2 are 0.0212 nM, 0.000144 s⁻¹ and 6.81e+06 M⁻¹ s⁻¹.
On the same counts, the results for B3 are 0.00985 nM, 8.71e-05 s⁻¹ and 8.84e+06 M⁻¹ s⁻¹.
For B4 the same measures were 0.0185 nM, 0.000238 s⁻¹ and 1.29e+07 M⁻¹ s⁻¹.
Take B5: binding was put at a Kd of 0.104 nM, the dissociation rate constant (koff) came to 0.00032 s⁻¹ and the on-rate constant (kon) amounted to 3.08e+06 M⁻¹ s⁻¹.
On the same counts, the results for B6 are 0.0712 nM, 0.000427 s⁻¹ and 6e+06 M⁻¹ s⁻¹.
B7 came in with a Kd of 0.0291 nM, a koff of 0.000675 s⁻¹ and a kon of 2.32e+07 M⁻¹ s⁻¹.
For B8 the same measures were 0.366 nM, 0.00342 s⁻¹ and 9.34e+06 M⁻¹ s⁻¹.
For the molecule B9, binding was characterised by a dissociation constant (Kd) of 0.149 nM, the off-rate (koff) was 0.0012 s⁻¹ and the kon turned out to be 8.04e+06 M⁻¹ s⁻¹.
On the same counts, the results for B10 are 0.00677 nM, 0.000147 s⁻¹ and 2.17e+07 M⁻¹ s⁻¹.
For B11 the same measures were 0.011 nM, 0.00041 s⁻¹ and 3.72e+07 M⁻¹ s⁻¹.
B12: the Kd is 0.0333 nM, the koff was 0.000522 s⁻¹ and the association rate constant (kon) worked out at 1.57e+07 M⁻¹ s⁻¹.

The next assay addresses T2, recombinant human TGF-β RII/Fc chimera protein (human, UniProt P37173 24-159).
T2 construct: range 24-159; Made in HEK-F cells; Biotinylated where it was put on SA chips, otherwise captured by anti-human IgG; also called human TGFbRII/Fc; hRII-Fc; not shown: Fc region of human IgG1
The description is as above. As to the method: as §1
As for B1, the Kd amounted to 0.123 nM, the koff is 0.000309 s⁻¹ and the kon was found to be 2.51e+06 M⁻¹ s⁻¹.
As for B2, the Kd worked out at 0.0217 nM, the koff was determined as 0.000136 s⁻¹ and the kon worked out at 6.26e+06 M⁻¹ s⁻¹.
For B3 the same measures were 0.00909 nM, 7.7e-05 s⁻¹ and 8.47e+06 M⁻¹ s⁻¹.
On the same counts, the results for B4 are 0.0182 nM, 0.000222 s⁻¹ and 1.22e+07 M⁻¹ s⁻¹.
For B5 the same measures were 0.102 nM, 0.000293 s⁻¹ and 2.89e+06 M⁻¹ s⁻¹.
Regarding B6, the Kd is 0.0741 nM, the off-rate (koff) is 0.000411 s⁻¹ and the kon was 5.55e+06 M⁻¹ s⁻¹.
On the same counts, the results for B7 are 0.00983 nM, 0.000222 s⁻¹ and 2.26e+07 M⁻¹ s⁻¹.
On the same counts, the results for B8 are 0.104 nM, 0.00139 s⁻¹ and 1.34e+07 M⁻¹ s⁻¹.
On to B9, for which the Kd was 0.0423 nM, the off-rate (koff) came out at 0.000373 s⁻¹ and the kon turned out to be 8.83e+06 M⁻¹ s⁻¹.
For B10, the Kd amounted to 0.00289 nM, the koff came to 6.91e-05 s⁻¹ and the kon came out at 2.39e+07 M⁻¹ s⁻¹.
For B11 the same measures were 0.0032 nM, 0.000131 s⁻¹ and 4.09e+07 M⁻¹ s⁻¹.
On the same counts, the results for B12 are 0.0104 nM, 0.000187 s⁻¹ and 1.81e+07 M⁻¹ s⁻¹.

The next assay deals with T2, recombinant human TGF-β RII/Fc chimera …. As to the kind of experiment: SPR Biacore A100, antigen-Fc captured by anti-human IgG, purified dAb, 1:1 model. How it is done: BIACORE™ A100 analysis was carried out using a capture surface on a CM5 chip. Anti-human IgG was used as the capturing agent and coupled to a CM5 biosensor chip by primary amine coupling. The Antigen molecule fused to the human Fc was captured on this immobilised surface to a level from 200 to 300 resonance units and supernatants or purified domain antibodies were passed over this captured surface. An injection of media or buffer over the captured antigen surface was used for double referencing. On each flow cell, a protein A spot allowed to confirm the presence of domain antibody on each sample injected. […] All runs were carried out at 25° C. using HBS-EP buffer as running buffer. Data were generated using the BIACORE™ A100 and analyzed using its inherent software. Kinetics from purified samples were fitted to the 1:1 binding model while supernatant off-rates were analyzed using the 1:1 dissociation model and/or using the binding level and the stability level of each sample in comparison to the parent molecule.
A selection of mutants with improved off-rate were purified and subjected to full BIACORE™ A100 kinetic analysis to determine their affinity (Table 10). The thermal stability of the mutants was also determined by generation of melting profiles in the presence of SYPRO™ Orange (Invitrogen). Briefly, the purified dAbs were diluted to 50 and 100 ug/ml in a 1:500 dilution of SYPRO™ Orange in PBS, and subjected to a 30-90° C. melt curve in a Mini OPTICON™ PCR machine (BioRad). The Tm of the major positive transition was determined at each concentration and used to calculate an estimated Tm value at 1 mg/ml as an indication of the melting temperature for comparison (Table 10).
Background: Surface plasmon resonance follows binding to a sensor surface in real time, without labels.
As for B13, the Kd was found to be 2.24 nM.
On the same count and under the same terms, then B14, with 1.17 nM; and B15, with 1.17 nM.
Same read-out and setting: with B16 the figure was 1.88 nM; with B17, 0.97 nM; with B18, 3.69 nM.
Consider B19, for which the Kd turned out to be 1.79 nM.
B20: the equilibrium dissociation constant (Kd) worked out at 3.34 nM.
As for B21, the Kd amounted to 4.26 nM.
Same read-out and setting: with B22 the figure was 4.17 nM.

A further assay deals with human TGF-βRII on cells (SBE-bla HEK 293T cells; A549 cells) (human, UniProt P37173 23-567). As to the kind of experiment: cell-based or functional assay.
Sequence of human TGF-βRII on cells (SBE-bla HEK 293T cells; A549 cells) (P37173 23-567): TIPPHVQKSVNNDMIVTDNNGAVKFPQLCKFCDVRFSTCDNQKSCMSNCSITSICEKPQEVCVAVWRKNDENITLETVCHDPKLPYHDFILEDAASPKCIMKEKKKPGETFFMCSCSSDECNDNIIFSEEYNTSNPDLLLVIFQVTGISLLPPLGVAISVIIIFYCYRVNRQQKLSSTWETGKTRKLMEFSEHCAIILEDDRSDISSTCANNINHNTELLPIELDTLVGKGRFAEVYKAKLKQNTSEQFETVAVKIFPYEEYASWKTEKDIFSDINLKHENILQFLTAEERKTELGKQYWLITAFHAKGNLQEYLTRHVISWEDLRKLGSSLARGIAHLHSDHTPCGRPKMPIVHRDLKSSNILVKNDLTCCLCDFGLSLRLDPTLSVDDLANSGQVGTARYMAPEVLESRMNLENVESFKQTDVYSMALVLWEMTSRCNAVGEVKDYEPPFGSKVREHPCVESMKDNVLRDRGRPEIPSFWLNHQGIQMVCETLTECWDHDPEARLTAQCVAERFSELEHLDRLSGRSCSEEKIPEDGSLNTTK
For B1, the “IC50 nM, Mean (SBE-bla HEK 293T cell sensor assay)” value (“IC50 nM, Mean” for short) turned out to be 37 nM.
The same measure, in the same setting: then B2, with 6.3 nM.
For the molecule B3, the “IC50 nM, Mean” value worked out at 2.4 nM.
On the same count and under the same terms, then B4, with 21 nM; and B5, with 18.3 nM.
Take B6: the “IC50 nM, Mean” value is 22.7 nM.
Same read-out and setting: then B7, with 0.5 nM; and B8, with 14 nM.
B9: the “IC50 nM, Mean” value came to 1 nM.
On the same count and under the same terms, with B10 the figure was 1.3 nM; with B11, 0.7 nM.
The same measure, in the same setting: with B12 the figure was 1.7 nM.
